Measured values as given in patent publication US20090181909.

Legend:
[1] = test system: T1, L-AVP ((Arg8)-vasopressin) (Homo sapiens); assay: ITC; conditions: L-RNA, hexaethylene glycol (PEG) spacer between Helix 2 and Helix 1, 37 C, 20 mM Tris pH 7.4, 150 mM NaCl, 5 mM KCl, 1 mM MgCl2, 1 mM CaCl2
T1 sequence: CYFQNCPRG

L-oxytocin = biological target: T2, L-oxytocin (UniProt P01178); assay: ITC; conditions: L-RNA; hexaethylene glycol (PEG) spacer between Helix 2 and Helix 1; 3'-C6-amino 40 kDa PEG; 37 C; same buffer; activity 69.8%; about ten times lower affinity than …
T2 sequence: CYIQNCPLG

[2] = test system: T3, D-AVP (D-(Arg8)-vasopressin, all-D peptide) (Homo sapiens); assay: competition; conditions: biotinylated D-AVP; selection buffer
T3 sequence: CYFQNCPRG

In the case of “GGGGUAGGGCUUGGAUGGGUAGUACACGUGUGCGUGGU [CHF-F-037-3'PEG spiegelmer]”, the Kd ([1]; 3'-C6-amino 40 kDa PEG, activity 59.1%) is reported as 1.3 nM and the Kd (L-oxytocin) is reported as 16 nM.
For “GGGGUAGGGCUUGGAUGGGUAGUACACGUGUGCGUGGU [CHF-F-037 spiegelmer]”, the Kd ([1]; activity 46.8%) was 1.7 nM.
For “AGUGUGCGUGGUUAAUAAUGGGGUAGGGCUUGGAUGGGUAGUACACU [CHF-157-B4 (CHF-F-000)]”, the Kd [2] was 9.5 nM.
